In paper PMC5101480 (Scientific Reports, 2016):

B1: TPR domain of SGTA (small, glutamine-rich, tetratricopeptide repeat protein alpha), residues 84-211 (domain or fragment, human, UniProt O43765 84-211, looked up)
chain: SEEDSAEAERLKTEGNEQMKVENFEAAVHFYGKAIELNPANAVYFCNRAAAYSKLGNYAGAVQDCERAICIDPAYSKAYGRMGLALSSLNKHVEAVAYYKKALELDPDNETYKSNLKIAELKLREAPS
notes: human SGTA, central TPR domain, residues 84-211; 15N-labelled (M9 medium) where it was the observed species in NMR; unlabelled otherwise; not shown: thioredoxin A (TxA), N-terminal, cleaved; His6, N-terminal, cleaved
B2: Rpn13 extreme C-terminal pentapeptide (DMSLD; residues 403-407) (peptide)
peptide: DMSLD
notes: also called DMSLD peptide; DMSLD pentapeptide; source: synthetic peptide, bought: Alta BioScience (Birmingham, UK)

Legend:
SGTA-V5 = SGTA-V5 (UniProt O43765)
[1] = target: T1, spin labelled K398C Rpn13_(260-407) mutant (human, UniProt Q16186 260-407, K398C, paramagnetic MTSL or diamagnetic dMTSL label incorporated via the K398C cysteine); assay: NMR paramagnetic relaxation enhancement; 15N-labelled SGTA_TPR mixed with MTSL or dMTSL labelled K398C Rpn13_(260-407) at a 1:1.2 ratio, 200 μM; 10 mM potassium phosphate pH 6.0, 100 mM NaCl; 1H-15N HSQC; conditions: both partners purified
T1 construct: The paramagnetic and the diamagnetic sample are written as one molecule: the PRE read-out is the ratio of the two; source: E. coli BL21(DE3) Rosetta, purified, then labelled with MTSL or dMTSL; not shown: thioredoxin A (TxA), N-terminal, cleaved; His6, N-terminal, cleaved

[2] = target: T2, Rpn13 C-terminal domain, residues 260-407 (human, UniProt Q16186 260-407); assay: NMR titration; 1H-15N HSQC chemical shift perturbation; unlabelled SGTA_TPR (wild type or K160E/R164E) titrated into 15N-labelled Rpn13_(260-407); 25 °C, 10 mM potassium phosphate pH 6.0, 100 mM NaCl, 250 μM TCEP; conditions: both partners purified
T2 construct: 15N-labelled where it was the observed species in NMR; unlabelled otherwise; not shown: thioredoxin A (TxA), N-terminal, cleaved; His6, N-terminal, cleaved

[3] = target: B2; assay: ITC; SGTA_TPR at 1 mM injected into Rpn13 or DMSLD peptide at 50 μM in the cell; 25 °C, 10 mM potassium phosphate pH 6.0, 100 mM NaCl, 250 μM TCEP; one site assumed (n = 1); conditions: both partners purified
[4] = target: T2, Rpn13 C-terminal domain, residues …; assay: as above; conditions: both partners purified
[5] = target: B1; assay: as above; conditions: both partners purified
[6] = target: T3, TPR domain of SGTA (SGTA_TPR) (Homo sapiens, UniProt O43765); assay: Solution NMR CSP titration of unlabelled ligand into 15N-labelled SGTA_TPR; format: binding; conditions: unlabelled ligand into 15N-labelled SGTA_TPR; pH 6.0, 25 °C; Rpn13_260-407 up to 8 equivalents, Rpn13_260-402 up to 6-fold molar excess
T3 construct: thioredoxin A (TxA) fusion (N, cleaved yes); hexahistidine tag (N, cleaved yes); made in house; host or cells: E. coli BL21(DE3) Rosetta
Procedure: In order to understand molecular details underlying the interaction between SGTA and Rpn13, solution NMR studies were carried out on excised domains of SGTA and Rpn13 guided by earlier mapping studies. Reciprocal chemical shift perturbation (CSP) experiments were performed by titrating unlabelled Rpn13 C-terminal domain (residues 260–407; hereafter described as Rpn13_260-407) into ^15N-labelled TPR domain of SGTA (residues 84–211; hereafter referred to as SGTA_TPR) and vice versa. Assignments of backbone amide resonances were obtained from the BMRB (accession numbers 5709 and 17286, for SGTA_TPR and Rpn13_260-407, respectively). The ^1H-^15N HSQC spectra of both SGTA_TPR and Rpn13_260-407 show binding in a fast exchange regimen (Figs 1A and 2A). […] Binding was further confirmed by size-exclusion chromatography (SEC) and isothermal titration calorimetry (ITC) (Fig. 1C,D). […] ITC experiments yield a dissociation constant of 16.1 ± 1.4 μM in keeping with the value obtained from NMR.
Protein samples at concentrations between 300 μM and 1 mM were prepared in 10% D2O (Sigma Aldrich), 10 mM potassium phosphate pH 6.0, 100 mM NaCl and 250 μM TCEP buffer (with 10 μM DSS for proton chemical shift referencing). All NMR experiments were acquired in 5 mm NMR tubes at 25 °C on 500 MHz and 700 MHz Bruker Avance spectrometers equipped with cryoprobes and operated by the TopSpin 3.1 software package. All NMR spectra were processed with TopSpin and analysed with CcpNMR Analysis[35]. Proteins used for NMR titrations were dialysed overnight against the same buffer (10 mM potassium phosphate pH 6.0, 100 mM NaCl and 250 μM TCEP) and mixed in different molar ratios, with the concentration of the labelled protein maintained constant. ^1H-^15N HSQC experiments were recorded for each titration point at 25 °C. Chemical shift perturbation (CSP) values were calculated for each amide signal using the following formula: […]
where Δδ1H and Δδ15N are the chemical shift differences for the same amide in its free and bound state (δfree−δbound) and for proton and nitrogen chemical shift values respectively. […]

[7] = target: T3, TPR domain of SGTA (SGTA_TPR); assay: Size exclusion chromatography (SEC) complex formation with SGTA_TPR; format: binding; conditions: mixed in 1:1 molar ratio
Procedure: In order to understand molecular details underlying the interaction between SGTA and Rpn13, solution NMR studies were carried out on excised domains of SGTA and Rpn13 guided by earlier mapping studies. Reciprocal chemical shift perturbation (CSP) experiments were performed by titrating unlabelled Rpn13 C-terminal domain (residues 260–407; hereafter described as Rpn13_260-407) into ^15N-labelled TPR domain of SGTA (residues 84–211; hereafter referred to as SGTA_TPR) and vice versa. Assignments of backbone amide resonances were obtained from the BMRB (accession numbers 5709 and 17286, for SGTA_TPR and Rpn13_260-407, respectively). The ^1H-^15N HSQC spectra of both SGTA_TPR and Rpn13_260-407 show binding in a fast exchange regimen (Figs 1A and 2A). […] Binding was further confirmed by size-exclusion chromatography (SEC) and isothermal titration calorimetry (ITC) (Fig. 1C,D). […]
SGTA_TPR and Rpn13 plasmids were transformed into E. coli BL21(DE3) Rosetta cells, with protein expression induced by adding 0.3–0.5 mM isopropyl-β-D-thiogalactopyranoside (IPTG) to bacterial cultures in LB media at OD600 ≈ 0.8, followed by overnight incubation at 18 °C. […] Proteins were concentrated using Vivaspin concentrators (Sartorius Stedin) and sample purity and homogeneity was assessed by SDS-PAGE, mass spectrometry and NMR. […]

[8] = target: T3, TPR domain of SGTA (SGTA_TPR); assay: Isothermal titration calorimetry (ITC), SGTA_TPR titrated into Rpn13 or DMSLD peptide; format: binding; conditions: 20 injections of 2 μL of 1 mM SGTA_TPR into 50 μM Rpn13_260-402, pH 6.0, 25 °C
Procedure: ITC experiments were performed using an ITC-200 microcalorimeter from Microcal (GE Healthcare) at 25 °C following the standard protocol as reported previously. Proteins or peptide samples were prepared in 10 mM potassium phosphate pH 6.0, 100 mM NaCl, 250 μM TCEP. In each titration, either 40 injections of 1 μL or 20 injections of 2 μL of SGTA_TPR each, at a concentration of 1 mM, were added to a sample of Rpn13 or the Rpn13 derived DMSLD peptide at a concentration of 50 μM in the reaction cell. A nonlinear least-squares minimization algorithm was applied to integrated heat data obtained for the titrations, corrected for heats of dilution, in order to fit the experimentally obtained values to a theoretical titration curve. This was performed using the MicroCal-Origin 7.0 software package. ΔH (reaction enthalpy change in kcal/mol), Kb (equilibrium binding constant in per molar), and n (molar ratio between the proteins in the complex) were used as fitting parameters. The reaction entropy, ΔS, was calculated using the relationships ΔG = −RT lnKb (R = 8.314 J/(mol K), T 298 K) where ΔG = ΔH − TΔS. Dissociation constants (Kd) have been determined for each interaction. Binding was assumed to be at one site (n = 1), to determine the binding affinity (Kd) and thermodynamic parameters.

Chain of SGTA-V5 (O43765 whole entry): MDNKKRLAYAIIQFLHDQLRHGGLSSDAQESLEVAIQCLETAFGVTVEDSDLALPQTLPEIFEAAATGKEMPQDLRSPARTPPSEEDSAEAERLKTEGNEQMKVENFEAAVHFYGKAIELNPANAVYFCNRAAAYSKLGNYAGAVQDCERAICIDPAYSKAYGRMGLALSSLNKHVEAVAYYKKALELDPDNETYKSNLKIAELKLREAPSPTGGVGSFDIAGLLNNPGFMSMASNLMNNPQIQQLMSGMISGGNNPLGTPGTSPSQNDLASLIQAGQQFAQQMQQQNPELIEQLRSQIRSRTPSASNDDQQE

“FLAG tagged mouse Rpn13 (150-402) (from UniProt Q9JKV1 150-402) (domain or fragment)” was tested, and the fold increase of steady state OP91 level (quantitative western blot) in HeLa TRex Flp-In cells co-expressing SGTA-V5 and Rpn13 (150-402), against the Rpn13 (150-407) control (SGTA-V5) was 3 fold.

For B1, the binding result [1] was “binds”, the Kd [2] was 3.27 ± 0.87 µM and the dH [3] was -4.97 ± 0.41 kcal/mol. It also gave a Kd [4] of 16.1 ± 1.4 µM and a dH [4] of -3.37 ± 0.08 kcal/mol.

Work on B2 yielded a Kd [5] of 71.9 ± 13.3 µM.

B3: Rpn13_260-402: Rpn13 construct devoid of the C-terminal pentapeptide (residues 260–402) (protein)
chain: QPIQLSDLQSILATMNVPAGPAGGQQVDLASVLTPEIMAPILANADVQERLLPYLPSGESLPQTADEIQNTLTSPQFQQALGMFSAALASGQLGPLMCQFGLPAEAVEAANKGDVEAFAKAMQNNAKPEQKEGDTKDKKDEEE
modifications: left off: thioredoxin A (TxA), N-terminal, cleaved | His6, N-terminal, cleaved
B3 was tested, and the “CSP of SGTA_TPR backbone amide signals, result in words” value [6] was “no perturbation of SGTA_TPR backbone amide signals”, the “SEC complex formation with SGTA_TPR” value [7] was “no evidence of an interaction” and the “ITC binding, result in words” value [8] was “abrogation of binding with SGTA_TPR”. The “ITC binding, result in words” value ([8]; listed as Rpn13260-402) was “does not interact”.
